These results are taken from patent publication US20090158455A1, “COMPOSITIONS AND METHODS FOR MODULATING LYSINE PRODUCTION” (priority 2005, published 2009).

Substrate in data set [1]: N[C@@H](CCC(=O)O)C(=O)O
Description: Quantitative forward and reverse assays of purified LL-DAP transaminases (Example III). The data set is classed as biochemical, Syntrophobacter fumaroxidans MPOB. The following applies: other: forward assay.

Substrate in data set [2]: O=C(O)C1=N[C@H](C(=O)O)CCC1
The description is as above. The data set is classed as biochemical, Syntrophobacter fumaroxidans MPOB. Particulars: other: forward assay.

Substrate in data set [3]: O=C(O)CCC(=O)C(=O)O
Description: purified protein, by the assay type. The following applies: other: reverse assay.

Substrate in data set [4]: N[C@@H](CCC[C@H](N)C(=O)O)C(=O)O
The data set is described as follows: purified protein, by the assay type. The following applies: other: reverse assay.

Substrate in data set [5]: N[C@@H](CCC(=O)O)C(=O)O
Description: Quantitative forward and reverse assays of purified LL-DAP transaminases (Example III). The data set is classed as biochemical, Bacteroides fragilis NCTC9343. Particulars: other: forward assay. An excerpt:
(§1) All orfs were processed identically for expression in E. coli. The orfs were amplified by PCR using the indicated primers. The resulting DNA fragment was digested with BamHI and SalI and cloned into pET30b. The pET30b clone was sequenced. This plasmid was transformed into E. coli BL21-CodonPlus®-RIPL for expression and purification of the recombinant protein. For functional complementation experiments, the expression cassette was subcloned from pET30b into pBAD33 (Guzman et al., 1995) using XbaI and SalI. Using these enzymes the expression cassette included the entire orf, the His-Tag coding sequence and the ribosome binding site from pET30b. pBAD33 provided an arabinose-regulated promoter.
(§2) For protein expression the E. coli strains were grown on LB at 37° C. to an OD600 nm of 0.5 and protein expression was then induced with 1 mM IPTG for 4 hr at 25° C. Cells were lysed by sonication in a solution of 50 mM sodium phosphate and 300 mM NaCl (pH 8.0). Metabolites in the extract were removed by buffer exchange using an Amicon Ultra 30,000 MWCO ultrafilter and sodium phosphate/NaCl buffer, and the concentrated soluble protein sample was used for measurement of enzyme activity as an initial assessment of enzyme function. When the recombinant protein was to be purified a larger cell culture was grown and lysed as described above, but the buffer exchange step was not carried out. […] The pure protein was then concentrated in an Amicon Ultra 30,000 MWCO ultrafilter, replacing the elution buffer with 100 mM HepesKOH, pH 7.6.
(§3) Enzyme assays were performed as described above in Examples I and II.
(§4) The catalytic properties of sll0480, BF2643, Dhaf—3980, MTH52, and SfumDRAFT0821 were studied in greater detail using purified enzymes to determine their kinetic constants using quantitative forward and reverse assays.

Substrate in data set [6]: O=C(O)C1=N[C@H](C(=O)O)CCC1
The data set is described as above. The data set is classed as biochemical, Bacteroides fragilis NCTC9343. The following applies: other: forward assay.
Description: as §1, §2, §3, §4

Substrate in data set [7]: N[C@@H](CCC[C@H](N)C(=O)O)C(=O)O
The data set is described as above. The data set is classed as biochemical, Bacteroides fragilis NCTC9343. The following applies: other: reverse assay.
Description: as §1, §2, §3, §4

Substrate in data set [8]: N[C@@H](CCC(=O)O)C(=O)O
The data set is described as follows: purified protein, by the assay type. Particulars: other: forward assay.

Substrate in data set [9]: O=C(O)C1=N[C@H](C(=O)O)CCC1
The data set is described as follows: purified protein, by the assay type. The following applies: other: forward assay.

The mark [10] stands for this setting: coupled with 2-OG dehydrogenase, pH 7.5, apparent Km, pH 7.5, 30.0 °C.
Setting [11] is: Ddh-coupled, pH 7.5, 30° C., apparent Km, pH 7.5, 30.0 °C.

Several values for one entry are separate records, joined by “and”; a condition that tells them apart may be missing. Equal entries are not always repeated.

B1: Syntrophobacter fumaroxidans LL-DAP transaminase SfumDRAFT_0821 (Syntrophobacter fumaroxidans MPOB) (protein)
chain: MAFVKAERLKLLPPYLFQEIDRLKAELTAKGVDVINLGVGDPDLPTPDHIIARLKTAAEDPSTHQYPSYSGMNDFKVSVAGWYKRRFGVELDPLSEVLTLIGSKEGLAHFPLAVINPGDLALVPTPAYPVYHVATMFAGGESYFMPLVRENGFLPDLDSIPADVARRAKVMFINYPNNPTGATAERDFFEKVIAFAREYDVIVCHDAAYTEMAFGGYRPLSFLELPGAGEVGVEFHSLSKTYNMTGWRLGFAVGNADILAGLGQVKSNIDSGAFNAVQWAGITALEGDQGCVVEMQRIYKERLDILIEGLKRIGLHPEVPRATFYVWCPTPPGYSSKDFSSLLLREAGIVATPGSGFGAPGEGYIRMALTVDKERVREAVERMRKLSF
Turning to B1, the Km (usually the concentration of substrate that gives half-maximal velocity) in data set [1] was determined as 700 µM; in data set [2], 12 µM; in data set [3], 700 µM; in data set [4], 29 µM.

B2: Bacteroides fragilis LL-DAP transaminase Bf2643 (Bacteroides fragilis YCH46) (protein)
chain: MALVNEHFLKLPGSYLFSDIAKKVNTFKITHPKRDIIRLGIGDVTRPLPKACIEAMHKAVEEMTSAETFRGYGPEQGYDFLIEAIIKNDYAPRGIHLSPTEVFVNDGAKSDTGNIGDILRHDNSVGVTDPIYPVYIDSNVMCGRAGVLDTESGKWSNVTYMPCTAENHFIPAIPEKRIDIVYLCYPNNPTGTTLTKAELKKWVDYALANDTLILFDAAYEAYIREPDIPHSIYEIKGAKKCAIEFRSFSKTAGFTGVRCGYTVVPKELTAATLEGERIPLNRLWNRRQCTKFNGTSYITQRAAEAIYTPEGKEQIQETINYYMTNARIMKEGLESTGLKVYGGVNAPYLWVKTPNGTSSWRFFDQMLYEANVVGTPGVGFGPSGEGYIRLTAFGERDDCIEAMRRIKNRL
As to B2, the Km in data set [3] worked out at 1200 µM; in [5], 1300 µM; in data set [6] it was 96 µM; in [7], 10 µM.

B3: Arabidopsis thaliana LL-DAP-AT (At4g33680), wild type, recombinant (lacks first 39 amino acids, hexa-His and S-TAG), SEQ ID NO: 7 (Arabidopsis thaliana) (protein)
chain: VNTCKCVATPQEKIEYKTKVSRNSNMSKLQAGYLFPEIARRRSAHLLKYPDAQVISLGIGDTTEPIPEVITSAMAKKAHELSTIEGYSGYGAEQGAKPLRAAIAKTFYGGLGIGDDDVFVSDGAKCDISRLQVMFGSNVTIAVQDPSYPAYVDSSVIMGQTGQFNTDVQKYGNIEYMRCTPENGFFPDLSTVGRTDIIFFCSPNNPTGAAATREQLTQLVEFAKKNGSIIVYDSAYAMYMSDDNPRSIFEIPGAEEVAMETASFSKYAGFTGVRLGWTVIPKKLLYSDGFPVAKDFNRIICTCFNGASNISQAGALACLTPEGLEAMHKVIGFYKENTNIIIDTFTSLGYDVYGGKNAPYVWVHFPNQSSWDVFAEILEKTHVVTTPGSGFGPGGEGFVRVSAFGHRENILEACRRFKQLYK
Consider B3, for which the Km is 2000 µM in [8] (coupled with 2-OG dehydrogenase, pH 7.5, apparent Km, pH 7.5); 1900 ± 100 µM in [8] (setting [10]); 38 ± 4 µM in data set [9] (setting [10]); 8300 µM and 8700 ± 300 µM in data set [3] (setting [11]); 67 ± 2 µM in [4] (setting [11]).

B4: Arabidopsis thaliana LL-DAP transaminase At4g33680, SEQ ID NO: 7 (Arabidopsis thaliana) (protein)
chain: B3 chain
B4: the Km worked out at 1400 µM in [8], 25 µM in data set [9], 1400 µM in data set [3] and 62 µM in [4].
